{"source": "patent US12534533B2", "about": "“Anti-chemokine like receptor 1 humanized antibodies and their therapeutic applications” (OSE IMMUNOTHERAPEUTICS, priority 2019, dated 2026)", "molecules": {"B1": {"name": "2G1: parental chimeric anti-CMKLR1 antibody: heavy chain variable domain SEQ ID No. 37, light chain variable domain SEQ ID No. 49 (antibody, V domains shown)", "VH": "EVQLVASGGGLVQPGGSLKLSCAASGFTFSSYGMSWVRQTPDRRLELVATINRYGGSTYYPDSVKGRFTISRDNAKNTLYLQMSSLKSEDTAMYYCPRLIYYGNEGDSWGQGTTLTVSS", "VL": "QIVLTQSPAIMSASPGEKVTMTCSASSSVSFMHWYQQKSGTSPKRWIYDTTKLTSGVPARFSGSGSGTFYSLTISSMEAEDAATYYCQQWNSKPPLTFGPGTKLELKR"}}, "key": {"[1]": {"system": "neutrophils and macrophages in exudates", "test": "in vivo neutrophils apoptosis (sterile air and carrageenan, exudates)", "protocol": "FIG. 27—in vivo neutrophils apoptosis —A) Experimental proceedings—B) ChemR23 expression C) neutrophils frequency in exudates D) macrophages frequency in exudates G) neutrophils mortality F) Ratio dead/living neutrophils.\nSterile air was injected two times at d3 and d6 and inflammation was initiated with the injection of carrageenan. Exudates were collected at different times and stained for flow cytometry analysis."}, "[2]": {"biological_target": "T1, CMKLR1 receptor (CHO-K1 CMKLR1 cells) (Homo sapiens, UniProt Q99788)", "T1 construct": "host or cells: CHO-K1", "T1 sequence (Q99788 1-373)": "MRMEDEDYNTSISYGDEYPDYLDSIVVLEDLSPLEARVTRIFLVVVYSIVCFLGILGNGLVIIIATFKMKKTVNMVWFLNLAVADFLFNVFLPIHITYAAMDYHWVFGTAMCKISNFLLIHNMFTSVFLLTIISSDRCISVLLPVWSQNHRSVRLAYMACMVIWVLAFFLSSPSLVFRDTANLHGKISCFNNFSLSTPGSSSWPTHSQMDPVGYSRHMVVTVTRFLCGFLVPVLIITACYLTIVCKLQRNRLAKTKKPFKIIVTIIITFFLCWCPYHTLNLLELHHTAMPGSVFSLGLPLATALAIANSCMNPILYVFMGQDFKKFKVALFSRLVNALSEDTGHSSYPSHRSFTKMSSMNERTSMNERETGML", "test": "competition assay, Chemerin-dependent beta-arrestin recruitment by CMKLR1 receptor", "assay_type": "cell-based", "conditions": "antibody 1 μM to 1 nM, Chemerin 2 or 6 nM; FIG. 18B", "protocol": "The day before the assay, CHO-K1 CMKLR1 cells (Discover'X ref 93-0313E2) were plated in pre-warmed cell reagent then plated in a 96-well plate at 100 μl/well of cells as (Discover'X ref 15-103) and incubated […] at 37° C., in a 5% CO2 humidified incubator. The anti-CMLKR1 antibody was diluted (22× in 7-point series of 3-fold dilutions from 1 μM to 1 nM) and cells were incubated 30 min at 37° C. with the antibody. […] The luminescence was measured after Working Detection Solution addition to the cells with a plate reader with 0.5 s integration."}, "[3]": {"system": "PMN from healthy volunteers", "test": "Percentage of dead PMN (mortality of neutrophils) on coated antibodies", "assay_type": "cell-based, human", "conditions": "coated Ab at 10 μg/mL, 24 h; FIG. 26, FIG. 36", "protocol": "[…] Mortality of PMN was analyzed by incubating PMN with specific markers of the mortality and viability and then counted by picture analysis.\n(§1) FIG. 36—Increase of dead PMN neutrophils in vitro with anti-ChemR23 antibodies coated. PMN from healthy volunteers were incubated in culture medium with coated HEF-LDT52S, HEF-LEF and HDLD antibody variants at 10 μg/mL for 24 h and stained either with a dead/viability kit (LIVE/DEAD (Invitrogen)). The percentages of positive cells were obtained by analyzing the pictures with Fiji software. Isotype control was added as control.\nPMN from healthy volunteers were incubated in culture medium with coated Ab at 10 μg/mL for 24 h or 5 h and stained either with a dead/viability kit (LIVE/DEAD (Invitrogen)) or a specific marker of reactive oxygen species (ROS) respectively. The percentages of positive cells were obtained by analyzing the pictures with ImageJ software.\nas §1, with “PMN” for “FIG. 36—Increase of dead PMN neutrophils in vitro with anti-ChemR23 antibodies coated. PMN”"}, "[4]": {"system": "CCR7 expression at the surface of pro-inflammatory macrophages M1", "test": "CCR7 expression on M1 macrophages with coated antibodies", "assay_type": "cell-based, human", "conditions": "antibody coated on plate, 48 h, flow cytometry; vs isotype control; FIG. 25, FIG. 35", "protocol": "FIG. 25. Inhibition of CCR7 expression on M1 macrophages cells in vitro with anti-ChemR23 antibodies coated. 2G1 and all humanized 2G1 variants (HALA, HCLC, HCLD, HDLC and HDLD) were immobilized on plate. Isotype control were added as controls. Two isotypes which prevent FcRγ binding, i.e., 2G1-N297A (2G1 wt mutated in N297A to reduce FcγR binding), and 2G4 (wt with isotype IgG4mutated in S228P to stabilise hinge region) were also added. Pro-inflammatory macrophages M1 were added on coated plate for 48 h, and CCR7 expression at the surface of the macrophages was measured by flow cytometry.\nFIG. 35—Inhibition of CCR7 expression on M1 macrophages cells in vitro with anti-ChemR23 antibody coated. The humanized 2G1 variant HEF-LD-T52S was immobilized on plate. Isotype control were added as controls. Pro-inflammatory macrophages M1 were added on coated plate, and CCR7 expression at the surface of the macrophages was measured by flow cytometry.\nMATERIAL AND METHODS. […]\nRESULTS. […] Pro-inflammatory macrophages M1 were added on coated plate for 48 h, and CCR7 expression at the surface of the macrophages was measured by flow cytometry.\nThe humanized 2G1 variant HEF-LD-T52S was immobilized on plate. […] Pro-inflammatory macrophages M1 were added on coated plate for 48 h, and CCR7 expression at the surface of the macrophages was measured by flow cytometry. […]"}, "[5]": {"system": "lesions in the central nervous system induced by MOG peptide", "test": "autoimmune encephalomyelitis experimental model (EAE)", "assay_type": "in vivo", "excerpt": "Lesions in the central nervous system were induced by injection of the immunogenic MOG peptide combined with adjuvants."}}, "note": "“Also recorded” adds a separate entry of the source.", "data": [{"molecule": "B1", "values": [{"measurement": "percentage of neutrophils in exudates", "setting": "[1]; FIG. 27C", "result": "not significantly decreased"}, {"measurement": "overall percentage of macrophages in exudates", "setting": "[1]; FIG. 27D", "result": "slightly enhanced"}, {"measurement": "percentage of dead neutrophils", "setting": "[1]; FIG. 27E and FIG. 27F", "result": "increased"}, {"measurement": "chemerin-dependent activation of the beta-arrestin", "setting": "[2]", "result": "did not significantly modify chemerin-dependent activation of the beta-arrestin"}, {"measurement": "mortality of PMN (percentage of dead PMN)", "setting": "[3]", "result": "increase the mortality of PMN; also recorded: accelerate the death of PMN"}, {"measurement": "expression of CCR7 at the surface of pro-inflammatory macrophages (M1)", "setting": "[4]", "result": "able to decrease expression of CCR7"}, {"measurement": "Weight variation overtime", "setting": "[5]; curative administration, 1 mg/kg from clinical score 2, FIG. 32A", "result": "does not lead to the reduction of the weight"}, {"measurement": "illness score lower than control", "setting": "[5]; ten-day posttreatment", "result": "approximately 30%"}, {"measurement": "illness score", "setting": "[5]; vs control antibody, FIG. 32B", "result": "significantly reduced"}]}]}
